Substrate: CCCC(=O)Oc1ccc([N+](=O)[O-])cc1
Assay: purified protein
Assay type: biochemical, Qipengyuania seohaensis
Settings: standard assay: 50 mM CHES pH 10.0, 40 °C, 0.05-4.0 mM substrate

B1: E69 (Qipengyuania seohaensis) (protein)
chain: MRDHGERFVVEAEERRTVSIERTNLGGVNIAWVSPSDKVPSSDGPLIFNLHDGGFALNDGDAALYTAVSFAELQQLDSVSVDYRLTPQHPYPAALEDAVAAYAVIKRKMPGRPIVVYGLSAGGGLGAAFLLKVKQLGLPMPEAAVLNSPWSDVSMNSDTLATLDCYDPLLGGSRPTLKPLANSYAAGADPQDPLVSPVYGDWEGVDVPVLLISGTRDVMLGDTVRLHRAMWRAGVPAELIVNEGMWHAFSVEPEFEAMIADSARFIRHISAKED
notes: expressed in E. coli BL21 (DE3) from pSMT3 as N-terminal His6-SUMO fusion, tag cleaved with ULP1 and removed; about 30 kDa on SDS-PAGE
- Km: 2200 ± 300 µM

Reference: article PMC5702849, “A Novel Halotolerant Thermoalkaliphilic Esterase from Marine Bacterium Erythrobacter seohaensis SW-135” (Frontiers in Microbiology, 2017)
